Test results published in patent US5565425A, “Viral infection and proliferation inhibitors” (Snow Brand Milk Products Co., Ltd, priority 1993, dated 1996).

Columns and labels:
HIV (HTLV-IIIB) = assay: Inhibitory activity against HIV infection and proliferation in MT-4 cells (indirect fluorescence antibody method); type: cell-based, human immunodeficiency virus (HIV); conditions: three days, positive control 26.0%
Protocol: (Method) Cultured supernatant of MOLT-4/HTLV-IIIB cells, a HTLV-IIIB persistent infected strain of HIV, was used as a viral solution. The supernatant was kept at -80° C. Human T cell line MT-4 was used for the test. MT-4 was subcultured in RPMI 1640 medium containing 10% fetal calf serum (FCS). Sample, LF derived peptide, was dissolved in RPMI 1640 medium and one ml of the diluted solution at various concentrations was added to the cells. The inoculated MT-4 test sample was incubated for 60 minutes and infected with HIV at a concentration of moi […]=0.01 and one ml of the cell solution adjusted at a cell density of 3×10^5 cells/ml was added. The cells were cultured for three days : and HIV infected cells were determined with an indirect fluorescence antibody method.
HIV infected cells were determined by the indirect fluorescence antibody method using HIV infected patient serum as a primary antibody. […] HIV infected MT-4 cells cultured without addition of the sample was used as a positive control and cells without addition of viral solution was cultured to make a negative control group.

[1] = test system: influenza virus A/PR/8/34; conditions: 100 μl of one mg/ml solution in allantoic cavity three hours before virus; average of five eggs
[2] = test system: Human CMV (Tanaka strain); assay: Inhibitory activity against human CMV infection and proliferation in HELF cells (fluorescence staining); type: cell-based, Human cytomegalo virus; conditions: 24 hrs., concentration not given
Protocol: (Method) LF derived peptide was dissolved in 2% serum added MEM medium to give five mg/ml solution, filtered and sterilized to make a stock solution. The stock solution was diluted with 2% serum added MEM medium on use. Samples containing human embryo lung fibroblast cells (HELF cells) were suspended in 2% serum added MEM medium and incubated for 10 minutes. The cells were collected by centrifugation, washed twice with 2% serum added MEM medium and suspended in 2% serum added MEM medium. Human cytomegalo virus [Human CMV (Tanaka strain)] was added, incubated for 24 hrs., fluorescence stained with human CMV positive serum and the adsorption rate of human CMV to the cells was determined.
The results are judged from the numbers of fluorescent stained cells per one cover slip.

B1: Human LF: human lactoferrin, an iron-binding protein secreted in milk (protein, UniProt P02788 20-710, looked up)
Lactotransferrin: GRRRSVQWCAVSQPEATKCFQWQRNMRKVRGPPVSCIKRDSPIQCIQAIAENRADAVTLDGGFIYEAGLAPYKLRPVAAEVYGTERQPRTHYYAVAVVKKGGSFQLNELQGLKSCHTGLRRTAGWNVPIGTLRPFLNWTGPPEPIEAAVARFFSASCVPGADKGQFPNLCRLCAGTGENKCAFSSQEPYFSYSGAFKCLRDGAGDVAFIRESTVFEDLSDEAERDEYELLCPDNTRKPVDKFKDCHLARVPSHAVVARSVNGKEDAIWNLLRQAQEKFGKDKSPKFQLFGSPSGQKDLLFKDSAIGFSRVPPRIDSGLYLGSGYFTAIQNLRKSEEEVAARRARVVWCAVGEQELRKCNQWSGLSEGSVTCSSASTTEDCIALVLKGEADAMSLDGGYVYTAGKCGLVPVLAENYKSQQSSDPDPNCVDRPVEGYLAVAVVRRSDTSLTWNSVKGKKSCHTAVDRTAGWNIPMGLLFNQTGSCKFDEYFSQSCAPGSDPRSNLCALCIGDEQGENKCVPNSNERYYGYTGAFRCLAENAGDVAFVKDVTVLQNTDGNNNEAWAKDLKLADFALLCLDGKRKPVTEARSCHLAMAPNHAVVSRMDKVERLKQVLLHQQAKFGRNGSDCPDKFCLFQSETKNLLFNDNTECLARLHGKTTYEKYLGPQYVAGITNLKKCSTSPLLEACEFLRK
ratio of stained (HIV infected) cells (HIV (HTLV-IIIB); sample 63 μg/ml): 17% | ratio of stained (HIV infected) cells (HIV (HTLV-IIIB); sample 125 μg/ml): 8.6% | ratio of stained (HIV infected) cells (HIV (HTLV-IIIB); sample 250 μg/ml): 7.3% | ratio of stained (HIV infected) cells (HIV (HTLV-IIIB); sample 500 μg/ml): 5.8% | ratio of stained (HIV infected) cells (HIV (HTLV-IIIB); sample 1,000 μg/ml): 3.1% | Inhibitory rate of infection and proliferation of influenza virus [1]: 87.5% | Inhibitory rate of human CMV infection [2]: 94.8%
